B1: Soluble ActRIIB-Fc +15tail (Fc fusion, UniProt Q13705 19-134, looked up)
chain: SGRGEAETRECIYYNANWELERTNQSGLERCEGEQDKRLHCYASWANSSGTIELVKKGCWLDDFNCYDRQECVATEENPQVYFCCCEGNFCNERFTHLPEAGGPEVTYEPPPTAPT
notes: whole entry named; not shown: linker (if any) and Fc
B3: ActRIIB(20-134)-hFc (Fc fusion)
chain: GRGEAETRECIYYNANWELERTNQSGLERCEGEQDKRLHCYASWRNSSGTIELVKKGCWLDDFNCYDRQECVATEENPQVYFCCCEGNFCNERFTHLPEAGGPEVTYEPPPTAPT
notes: not shown: linker (if any) and human Fc (hFc)
B4: Growth and Differentiation Factor-11 (GDF11) (ligand, UniProt O95390 299-407, looked up)
chain: NLGLDCDEHSSESRCCRYPLTVDFEAFGWDWIIAPKRYKANYCSGQCEYMFMQKYPHTHLVQQANPRGSAGPCCTPTKMSPINMLYFNDKQQIIYGKIPGMVVDRCGCS
notes: also called BMP11

How the values were obtained:
[1] = target: T1, Activin A (UniProt P08476 311-426); assay: BiaCore; ligand coupled, receptor flowed over; ligand coupled to the device, receptor flowed over (data from WO2006/012627)
T1 construct: also called ActA
T1 sequence (looked up): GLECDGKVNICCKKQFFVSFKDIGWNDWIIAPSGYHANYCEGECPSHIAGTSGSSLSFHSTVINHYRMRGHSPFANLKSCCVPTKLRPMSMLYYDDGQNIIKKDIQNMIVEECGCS

[2] = target: B4; assay: Biacore; steady-state affinity fit
Protocol: (§1) The affinity of GDF Traps and other ActRIIB-hFc proteins for several ligands was evaluated in vitro with a BiacoreTM instrument. Kd values were obtained by steady-state affinity fit due to the very rapid association and dissociation of the complex, which prevented accurate determination of kₒₙ and koff.

[3] = target: T1, Activin A; assay: Biacore; steady-state affinity fit
Protocol: as §1

[4] = target: T2, Activin B (UniProt P09529 293-407); assay: Biacore; steady-state affinity fit
T2 sequence (looked up): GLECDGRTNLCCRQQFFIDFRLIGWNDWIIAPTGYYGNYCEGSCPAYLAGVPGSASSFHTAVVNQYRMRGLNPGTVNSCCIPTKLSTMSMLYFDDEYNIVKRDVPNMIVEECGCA
Protocol: as §1

[5] = target: T3, Growth and Differentiation Factor-8 (GDF8) (UniProt O14793 267-375); assay: BiaCore; receptor-Fc captured by anti-hFc antibody, ligand injected
T3 construct: also called myostatin
T3 sequence (looked up): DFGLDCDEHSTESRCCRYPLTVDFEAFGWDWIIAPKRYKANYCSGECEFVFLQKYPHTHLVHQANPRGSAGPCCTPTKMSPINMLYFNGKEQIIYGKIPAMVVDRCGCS
Protocol: (§2) Binding of certain ActRIIB-Fc proteins and GDF Traps to ligands was tested in a BiaCore™ assay.
(§3) The ActRIIB-Fc variants or wild-type protein were captured onto the system using an anti-hFc antibody. Ligands were injected and flowed over the captured receptor proteins.

[6] = target: B4; assay: as above
Protocol: as §2, §3

[7] = target: T1, Activin A; assay: as above
Protocol: as §2, §3

[8] = target: B4; assay: cell-based or functional assay
[9] = target: T1, Activin A; assay: cell-based or functional assay
[10] = target: B3; assay: Biacore; steady-state affinity fit
Protocol: as §1

[11] = target: B3; assay: BiaCore; receptor-Fc captured by anti-hFc antibody, ligand injected
Protocol: as §2, §3

[12] = target: B1; assay: BiaCore; ligand coupled, receptor flowed over; +15tail construct; ligand coupled to the device, receptor flowed over (data from WO2006/012627)
[13] = target: B4; assay: BiaCore; ligand coupled, receptor flowed over; WT (64R) construct; ligand coupled to the device, receptor flowed over (data from WO2006/012627)

B1
Kd [1]: ~26000 pM

B2: ActRIIB(L79D 20-134)-hFc (Fc fusion)
chain: GRGEAETRECIYYNANWELERTNQSGLERCEGEQDKRLHCYASWRNSSGTIELVKKGCWDDDFNCYDRQECVATEENPQVYFCCCEGNFCNERFTHLPEAGGPEVTYEPPPTAPTGGGTHTCPPCPAPELLGGPSVFLFPPKPKDTLMISRTPEVTCVVVDVSHEDPEVKFNWYVDGVEVHNAKTKPREEQYNSTYRVVSVLTVLHQDWLNGKEYKCKVSNKALPVPIEKTISKAKGQPREPQVYTLPPSREEMTKNQVSLTCLVKGFYPSDIAVEWESNGQPENNYKTTPPVLDSDGSFFLYSKLTVDKSRWQQGNVFSCSVMHEALHNHYTQKSLSLSPGK
notes: also called GDF Trap
Kd [2]: 123 pM
Kd [3]: 13500 pM
Kd [4]: 788 pM
Kd [5]: 2150 pM
koff [5]: 0.00083 s⁻¹
Kd [6]: 655 pM
koff [6]: 0.000439 s⁻¹

B3
Kd [3]: 16 pM
Kd [4]: 12 pM
Kd [7]: 26.8 pM
koff [7]: 0.000159 s⁻¹
kon [7]: 5.94e+06 M⁻¹ s⁻¹
IC50 (ng/mL), A-204 reporter gene assay, conditioned media [8]: 45 ng/mL
IC50 (ng/mL), A-204 reporter gene assay, conditioned media [9]: 22 ng/mL

B4
Kd [10]: 36 pM
Kd [11]: 84.2 pM
koff [11]: 0.000113 s⁻¹
kon [11]: 1.34e+06 M⁻¹ s⁻¹
Kd [12]: 19000 pM

B5: Soluble ActRIIB-Fc WT (64R) (Fc fusion)
chain: GRGEAETRECIYYNANWELERTNQSGLERCEGEQDKRLHCYASWRNSSGTIELVKKGCWLDDFNCYDRQECVATEENPQVYFCCCEGNFCNERFTHLPEA
notes: as for B1
Kd [13]: 86000 pM

B6: ActRIIB(L79 25-131)-hFc (Fc fusion)
chain: ETRECIYYNANWELERTNQSGLERCEGEQDKRLHCYASWRNSSGTIELVKKGCWLDDFNCYDRQECVATEENPQVYFCCCEGNFCNERFTHLPEAGGPEVTYEPPPT
notes: also called ActRIIB(25-131)-hFc; not shown: linker (if any) and human Fc (hFc)
Kd [2]: 31 pM
Kd [3]: 18 pM
Kd [4]: 12 pM
